The data set is described as follows: soluble on expression in E. coli; label from the status in PepcDB or PDB records.
Take “TKDFSWTTSLNLSHNKNKIVKLADLPEFIDGNYIRKEGCSYATIYLREYAGVDPNDGRPMYYDNKEDENGNRSRNIVYDPNDADRVELKDIYPKLTGGLMNTFNYKFIDLSFNLSFHLGGYSYDGAMYALQDDGYTAQYNKSTELRRRWKQPGDITDVPRYVYGQEYGGWWNSSRGVHSTDHLRLKSLIVGVSAPQSWLRTIGINSARIYFSGTNLLTWAAYDQYDPELNGIVSYFTPPLKTFAFGLELKF”: the “soluble on expression in E. coli” value was “not soluble”.
With “METGTPLIAETIALTEKKVAMALDDIIKLAKRKTNVNKGKKPRREKNKNQNFNGAARNNTSNVRHHMNSLSAVRQGAVGKRRSRFQGIQFPVTTNIARKASTAAPLDFRGRAFNGGRMTSANQSRLIAPPVQNISVQARVNAKRHEVDQKVEHRGGKRKTLDSRFASMKEQRMTINNYGVTVQVPRLPPWVRARRFSQ” the entry was “not soluble”.
Regarding “MELRAVQEVLKEERLDGWLLYSFGGSNPLALEVLGLAHLHLTRRFAYLIPREGAPTLLCHAIEASLFPPLPGNRKTYHTWRGFLEGLAHLLGGMRRVALEYVPGGQIPYLSRVDGGTLDLLRGLGLELASSWPLLLLFQTWDEERLQSHRRAAAGLARAKDLALDFLRQNPEASEREVQSVLVRALEGEGLIFDHPPMVAFGKNAANPHHEPSEVRLEEGAVVLLDLWAKAPGGVYADLTWMAGKRPPEAAHRAFQAVARARDEAIAFVERAYREGRYPKGFEVDRLARKVLEEEGYGPYIRHRTGHNLGEEVHGSGPHLDDLETHDLRPLVPGLAFTVEPGVYLEAFGVRTEVDVYLHPTGPEVTTPLQEAITPL”, the “soluble on expression in E. coli” value is given as “soluble”.
With “MDEKIAPHLEELTRALGDLEKTGIRAEFYKLLAFRVSPEVAKETILRKFGGKRKILKVKDLSASLKNFEITGRILDMGEKALRPQEGVQDGPSKLYTGILADETGSVMFSSWKELPGSIGDVINIKNAYTRLWQNRIRLSIGEQSLVSGVSDSSLPGLSELSKTPLKKLIEIGSADFSVSTTACVLQLSHREVPVRGKQSKVISGVLADETARLPFTAWVELPGIDIGSIIRIEGAQIRMFRGMPSINFISSTRISPVPAEEAEKLAFTFESSSKDPSPIKIEEIASRDSMFDVVTAGNIVSVRPGSGIISRCPECSRVIQKSNCRVHGRVEGIRDMRIKAVLDDGTGAMSVMFPRELAEIIYGKTLEEAEQLMFSDISKDAVYEDLRRFLTGRYLAVRGNSSNGEYGASFVAENAWVPEDDLAVRVVELLRRLGPDEGEQSSEVSREGISFALEHHHHHH” the entry was “soluble”; with “RPQGLHLELETRLQKMYGIRQVIVVEATEPDDEESIKQAIGSAAAHYLETSLSAQDHIGISSWSSTIRAMVSHMHPQPGKQSAQEVVQLLGGVGNKGAFEATLLTQRLATLLNCPAFLLPSQSIEQSVESKQRIVEMEEVKEVLHRFDSITLAIVGIGELEPSQLLRNSGNYYTEDMLRVLAERGAVGDICLRYFDAQGKPVLEEDEEFVVSMGLGKLRSINRVLGLAGGVRKVQAIKGALLGGYLDVLITDVGTARGLGG”, “soluble”.
On to “MSLRLVKTALTIAGSDSGGGAGIEADLKTFTAFGVHGLVAITSVTAQNTQAVTAIHDIPPDVVSEQIRAVAEDIGVDAAKTGMLSNAEIIKAVAKTVKNYDFPLVVDPVMIAKSGAPLLREDAVDALIKYILPLATLVTPNRFEAEKLSGMKIRTVEDAKIAAKKIAEETGAKAVIVKGGHIEGEEAIDVLYHNGSYRLYRAPKVEGCTHGTGCSFSAAITANLAKGFGLEDAIEVAKKFITLGIAMGHRIGHGHCPVNQSAWIEIPAEKWRIYEELTRAVREFEEMNPVKFIPEVGTNFVYSLPLPYARTRDDVAGVKGRIVRVGNEVRAVGPVEFGASDHLARAVLTFMKFYPEYRSAINIRYSEETVRLAEEQGLVVSFYDRREEPEEIKEREGATIPWGIESAIKRVKQRPDVIYHLGDVGKEPMILIFGRNPREVLDKLRLEGHHHHHH”, for which the “soluble on expression in E. coli” value is on record as “soluble”.
Regarding “NDAIIILNGEKVLDLNKKGREAFGLGARELDNISIGSLLSEKDLPAVRDALKTTLENGSACFEMKFRKQNGEVIDVEVSSSFLSLEEGEIQCVARD”, the “soluble on expression in E. coli” value is recorded as “not soluble”.
With “MRDRTCVVPGCGATRGLHAHHIRHWQDGGATELANLVLVCPYHHRAHHRGLITITLEHHHHHH” the entry was “not soluble”.
As to “MKKVSIIIPFKGQTEAELMLPLSSIYNQIGVDLSQLDIHLVNDGGKTIDLSKFDVLADRLEIHYHEIPNGGPGVARQYGIDNSISEYIMFIDADDVLYYVGALWPFYNASNQGHQMIRASYWEQIAGNPYTYTVHGNGDRKAAYGKWYKRSYIEMLGLRFMPDLPIYEDTYFVGLACELATDTCFLEEKVYMWLANPNSITRTVENKFNYQAHIYARENRYWFEMIRKWKPECLEHHHHHH”, the “soluble on expression in E. coli” value is “soluble”.
With “MSLNEQAPVIAVLLTERTRRMMLDDAAIAQLNALGEVRWPTGAAIDATDVDQLLHGAVACLTGWGTPPFDPAARQRHPQLALVAHSAGSVRTLVPARLFDDGIRVTHAASKIAASVAEFVVAEALLAMRGIHRLHHQLRNGGEWLDVRAAVPQKLLGSRTVGIVGAGYVGRAVMRLLVPFGCRVLVVDPFLHDSEAAALGVFRAGLNDMLAQADMVSLHAPVLPETRRMIGARELALLRPGTLFINTARAELVDEAALLAEIRSGRIEAALDVFDNEPLPQDSPFRDPALANVTISPHAAGHTNEAHLAQGQAMVDEIGRLLRREPLQHEVSREGHHHHHH” the entry was “not soluble”.
Take “QGEIRVGPSHQAKLPDLQPFPSPDGDTVTQHEELVWMPGVNDCDLLMYLRAARSMAAFAGMCDGGSTEDGCVAASRDDTTLNALNTLHESGYDAGKALQRLVKKPVPKLIEKCWTEDEVKRFVKGLRQYGKNFFRIRKELLPNKETGELITFYYYWKKT”: the “soluble on expression in E. coli” value was “not soluble”.
With “RMLTDRRVHDADFLTDELGLTSLGLVNHQHHHSMKKQALNLNGGYHTHNDRTSSQAMKRV” the entry was “not soluble”; with “MNDFSLELPVRTNKPRETGQSILIDNGYPLQFFKDAIAGASDYIDFVKFGWGTSLLTKDLEEKISTLKEHDITFFFGGTLFEKYVSQKKVNEFHRYCTYFGCEYIEISNGTLPMTNKEKAAYIADFSDEFLVLSEVGSKDAELASRQSSEEWLEYIVEDMEAGAEKVITEARESGTGGICSSSGDVRFQIVDDIISSDIDINRLIFEAPNKTLQQGFIQKIGPNVNLANIPFHDAIALETLRLGLRSDTFFLLEHHHHHH”, “not soluble”.
In the case of “MLVRKVCQNFFQNALAPFHKYRQSALMDATVALINGASLTLTSIGRFLPGQAQVKNKIKRVDRLLGNESLHRDIPLIFNNIIAMLTRKLSLCVVAVDWSGYHSHEYHILRASLICDGRSIPLLSQIVPSAEQQSEQIHKTFLNALARAVNPDARVILEHHHHHH”, the “soluble on expression in E. coli” value is “not soluble”.
For the sequence “MKQLSGLLGELRQKLCAGFPEQAGIQQLIFPAPGLVGRQLLEWLTAQTHFPQFYWRHRDNHEEAAVCGQTRSFADMKDADDFIQQNPDANGLRIWGLNAFEPVMVFGQLTDNGLVSGKNAQASFLFLPRLEILRRGKKTSLTLNLSSETSLQKDALQAITFIDQLMAARALPVLNARIQHSSHTPGYPQWRNLIQQALNDIEQQKLDKVVLARTTTLTLNKPLSCAAFMAASRQVNHRCYHFMLRFDDRQAFLGSSPERLYLRQQLHLETEALAGTVSNLDSDPQAAVLADWLMHDEKNQRENLLVVDDICQRLQGGVTAVDVMPPEIIRLRKVQHLRRRICAQLSRASDTDCLQRLQPTAAVAGLPREAARQFIAKHELFSRGWYAGSAGYLSLKRTEFSVALRSARVDGQQIHLYAGAGIVAGSDAEQEWQEIDNKSAGLQSLLEHEAQPVKA”, the “soluble on expression in E. coli” value is “not soluble”.
Consider “MGSDKIHHHHHHMKEIPGLVKKAQIDKHDLTWLEESEVDDRVQQRRYGTTQAAELAGISVGLLYAAEQDGRLPEPEYRSDTARKVRAGYTINHINHMQRVFNTAPRKPEGSSAAIAGILNLKGGSQKTTTCHLFSQYLAIRGYRCLLLDTDPQGSLSFYFGKRPDDNVHYENTVAPFFLEDDEALVEAGHPEGASRSLHYAIQKTYWDNIDIIPACLQNLNIDLLMPSVMNEANVPMLDRIMKLRNGLLEVGENYDFIIIDGTPSLNLSTLNVVSACDVCFVPTPAAMLDFASTLQFAGLVAETAEMYKQEKMYPNIPDMRYFITKYSGSSYAHFMGQIIRRVFTVERGDVLSTEAHASDEIGKANTSTYSIYEKNPAESDNRKRLKKTIEMFDRLFEEMHDAVWETCFEDALRSSHLDKIDEIMSSADLARDDLKRANRLSDKEA”, for which the “soluble on expression in E. coli” value is given as “not soluble”.
For the sequence “MRVLFIGDVMAEPGLRAVGLHLPDIRDRYDLVIANGENAARGKGLDRRSYRLLREAGVDLVSLGNHAWDHKEVYALLESEPVVRPLNYPPGTPGKGFWRLEVGGESLLFVQVMGRIFMDPLDDPFRALDRLLEEEKADYVLVEVHAEATSEKMALAHYLDGRASAVLGTHTHVPTLDATRLPKGTLYQTDVGMTGTYHSIIGGEVETFLARFLTGRPQPFRAAQGKARFHATELVFEGGRPVAISPYVWEEP”, the “soluble on expression in E. coli” value is recorded as “soluble”.
On to “MAHHHHHHMPSSSPLLGPVFEVITPRLWVRYLQRYLDVPELLTLSETCWTFFVRCNEEPLWRELCLRPPYIDVQQKLGLFTFRGSWKYTVCAYRAEGAGADRQSSRSSTVVLAQSRSIADASLRFNVLLPRIVSCLQVSGEMSSDDGAAWMSQLRSPCAAGTGAASEVSVGLDNGRDEGAAEATVGAEMSVGAWQENVLGKPYAPTLAVKYLSLSAGAINYFMRDGTFLRPPLHALRQPQHRLVRPHTEFTDYNWYGTCLLDLVPLPQWCTNAQFFATLRWKTSGNTRRLQCCGHATAALDDTGGVRGPSHLPDELRGVPGVVDRRYRLSVDAFQREYEVPNMPVVLTGCIEDWPARDTWQDIHFFHCFASEALRANGRTADGRRFRMSAADYLAYEVATNAEKPMYVFDKAALQRSTALRADYAIPPYFTEDFFSYMTEEDRPDYRWLLVGPDGSGSPFHTDPHGTCAWNAVLSGCKRVTLYPPHVVPPGVEEEWIHSDYYASEPCLRWYRTRGDSMPSGSAVCGTFSKEHAGEAYHGSARELPPVEALVFPGDLVFIPSGWWHQVLNIGHTVAVTHNLCSPLTFPRVVADMNAYADRTVRKRFQCALRRAGRDELAVQLRVPGAKRGVYAGHLL”, for which the “soluble on expression in E. coli” value is “not soluble”.
“SLSTLKILLCTDNHLGYKENNSIQKKDSFNSFEEILFIAKKLNVDMILNSGDLFHKNKVSEYTLFKSMYIIRKAGKKLIPFYTIHGNHDYPYSYEYISPLDILNISNLINYIGKNNLNNIVVKPILLNKYKSKISIYAVGWMKDERLYRSFENNEVKFILPSDYKNRINILVLHQNRYIRNAYGNNTKNFIKESFIPKFIDLVIWGHEHFSKPYLEESILNSFYNIQLGSSVRTSICPNEYGDKFIGLLEIKNQRFRFLKINLETVRPFEMKDIKLADYELNFKSESVLKEFLHEQTHAILEKIKNNFSHE”: the “soluble on expression in E. coli” value is on record as “not soluble”.
For “MAPRKRSHHGLGFLCCFGGSDIPEINLRDNHPLQFMEFSSPISNAEELNIRFAELVDELDLTDKNREAMFALPPEKKWQIYCSKKKVPSLTPLATSQGSWHGVALAALACSCIHLMFITCQPCSRCWRNNSE”, the “soluble on expression in E. coli” value is listed as “soluble”.
In the case of “MACLTDLVNLNLSDTTEKIIAEYIWIGGSGMDLRSKARTLPGPVTDPSKLPKWNYDGSSTGQAPGEDSEVILYPQAIFKDPFRRGNNILVMCDCYTPAGEPIPTNKRYSAAKIFSSPEVAAEEPWYGIEQEYTLLQKDTNWPLGWPIGGFPGPQGPYYCGIGAEKSFGRDIVDAHYKACLYAGINISGINGEVMPGQWEFQVGPSVGISSGDQVWVARYILERITEIAGVVVTFDPKPIPGDWNGAGAHTNYSTESMRKEGGYEVIKAAIEKLKLRHKEHIAAYGEGNERRLTGRHETADINTFSWGVANRGASVRVGRETEQNGKGYFEDRRPASNMDPYVVTSMIAETTIVWKP”, the “soluble on expression in E. coli” value was “soluble”.

The record behind these values is the DeepSol protein solubility set.
